B1: UGlow RNA (ssRNA)
RNA: ACAGUCCAGUCGCAGCAGACUCCCUCACAGCACCCACCUCUCCCACAAUCGGAUCCCAGG
B2: 62 RNA (ssRNA)
RNA: UGGGCCUGGAAUAGUGGGGGCCCAGGGGAAGCUGCGAUGUGCUUCUGAGUGUUUGGAACGAG
B3: UGhigh RNA (ssRNA)
RNA: UGCUGGGAUGGUCAUGGUGGGUGACCCUGGGAUGGCCGCGGUGGGUGACCCUGGAAUGGU

Legend:
Experiment in all cases: fluorescence anisotropy
[1] = biological target: MYCN FL (UniProt P04198 1-464)
[2] = biological target: MYCN 1-154 (UniProt P04198 1-154)
[3] = biological target: MYCN 1-154 dMBII (UniProt P04198 1-154, del111-134)

Row | Binder | Kd [1] [µM] | binding result [2] | binding result [3]
1 | B1 | 0.511 | – | –
2 | B2 | – | binds | –
3 | B3 | 0.175 | – | binds

Reference: doi:10.1101/2023.08.16.553474
